Source: publication doi:10.1101/2024.11.20.624454 (bioRxiv, 2024)

Target: T1, Mus musculus SPO11, MBP-tagged (Mus musculus, UniProt Q9WTK8 1-396)
T1 sequence (looked up): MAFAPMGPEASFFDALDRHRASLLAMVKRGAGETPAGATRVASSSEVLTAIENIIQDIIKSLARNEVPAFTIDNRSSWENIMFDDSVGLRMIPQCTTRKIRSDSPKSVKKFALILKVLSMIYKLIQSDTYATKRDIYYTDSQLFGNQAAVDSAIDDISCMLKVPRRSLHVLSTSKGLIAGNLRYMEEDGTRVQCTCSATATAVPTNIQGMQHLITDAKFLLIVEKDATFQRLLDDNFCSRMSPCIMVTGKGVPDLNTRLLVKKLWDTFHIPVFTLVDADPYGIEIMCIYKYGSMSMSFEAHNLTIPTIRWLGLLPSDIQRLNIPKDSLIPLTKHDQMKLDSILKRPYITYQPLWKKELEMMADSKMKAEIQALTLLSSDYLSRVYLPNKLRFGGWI
Experiment: SEC-MALS

stoichiometry N: 1
B1: Mus musculus TOP6BL, HisFlag-tagged (natural protein, UniProt J3QMY9 1-579, looked up)
chain: MERTALAVCEILRYLIIHWKCEAGTAKGTLLDGQLVISIEALRSKHLPDSLHCIITIASTRSVYGGLNFKKFLQEIQPALPRLSAKLALASEEGGRSQDASGIAPCQVTFEVDENSQSLMTDCLVIKHFLRKIIIVHHKLKFSFSVAVNGTLSAETFGAENEPTLRLDNGVTLVVGFQRYVSKPKLNWSEAHCSRIHPVLGHPAPLFIPDAKADTGLLGELTLTPAAALCPSPKGFSSQLCRISSVSIFLYGPLGLPLLSSDQDQPSTAVFRDTSYFIDWKKYNLFMVPNLDLNLDTQSVLPDVNYKAESPEGNQSQNMNAQGPALLLFLFVDFQSDVPVQQAKIWGLHTLLTAHLSAILSESRSTVQQSIQSAVDQVWQLYHHDAKTQQRLQASLSVAVNSIMSVLTGSTRSSFRKTCLQALEAADTQEFGVKLHRIFYDITQHQFLKHCSCDTEQHLTPEKNISAQNTKDQHKNIAQEFPEESIGQAENKRPKRGSPNHGREESRVLGSARDRSPPKSATRDRELTEVSLTARGSQTQAAHGRAQAAEAASPAGGLEDLWLQEVSNLSEWLNPGHRS
